The values below come from patent publication US20090317391A1 (Novartis, published 2009).

Series [1] has as its system tm-PTPε (wild type, stably expressed in NIH/3T3 and Rat-1 cells).
The test system of series [2] is tm-PTPε A24C mutant, V5-tagged.
The test system of series [3] is tm-PTPε Q26C mutant, V5-tagged.
Series [4] concerns the molecule itself. Nature of the series: V5 immunoblot, non-reducing conditions (figure legend; self-dimer). The procedure: Whole cell lysates were prepared from NIH/3T3 transiently transfected with vectors expressing either a V5-tagged wild-type PTPRε or PTPRε P20C, D21C, P22C, G23C, A24C, S25C, Q26C mutants, as well as from empty vector control cell lines. Cell lysis was carried out in the presence of 20 mM iodacetamide. Iodacetamide inhibits glutathione reductase, the enzyme responsible for disulfide bridge reduction in vivo, to minimize dimmer cleavage. All the constructs encode a V5-tagged protein. Samples were analyzed in reducing and non-reducing conditions and immunoblotted, for wild-type or tm-PTPε mutant protein expression by probing with a V5-specific antibody. All the proteins are expressed as monomers in reducing conditions (FIG. 20A). In non-reducing conditions, however, while wild-type tm-PTPε was unable to form a dimer (because it is lacking cysteines in its extracellular domain), all tm-PTPε mutants formed dimers (FIG. 20B).

In series [5] the target is T1, SEMA4D-V5 (expressed from pDESTSEMA4D-V5) (UniProt Q92854 22-862, limits assumed).
T1 construct: Control membrane protein co-transfected in 293T cells
T1 sequence (looked up): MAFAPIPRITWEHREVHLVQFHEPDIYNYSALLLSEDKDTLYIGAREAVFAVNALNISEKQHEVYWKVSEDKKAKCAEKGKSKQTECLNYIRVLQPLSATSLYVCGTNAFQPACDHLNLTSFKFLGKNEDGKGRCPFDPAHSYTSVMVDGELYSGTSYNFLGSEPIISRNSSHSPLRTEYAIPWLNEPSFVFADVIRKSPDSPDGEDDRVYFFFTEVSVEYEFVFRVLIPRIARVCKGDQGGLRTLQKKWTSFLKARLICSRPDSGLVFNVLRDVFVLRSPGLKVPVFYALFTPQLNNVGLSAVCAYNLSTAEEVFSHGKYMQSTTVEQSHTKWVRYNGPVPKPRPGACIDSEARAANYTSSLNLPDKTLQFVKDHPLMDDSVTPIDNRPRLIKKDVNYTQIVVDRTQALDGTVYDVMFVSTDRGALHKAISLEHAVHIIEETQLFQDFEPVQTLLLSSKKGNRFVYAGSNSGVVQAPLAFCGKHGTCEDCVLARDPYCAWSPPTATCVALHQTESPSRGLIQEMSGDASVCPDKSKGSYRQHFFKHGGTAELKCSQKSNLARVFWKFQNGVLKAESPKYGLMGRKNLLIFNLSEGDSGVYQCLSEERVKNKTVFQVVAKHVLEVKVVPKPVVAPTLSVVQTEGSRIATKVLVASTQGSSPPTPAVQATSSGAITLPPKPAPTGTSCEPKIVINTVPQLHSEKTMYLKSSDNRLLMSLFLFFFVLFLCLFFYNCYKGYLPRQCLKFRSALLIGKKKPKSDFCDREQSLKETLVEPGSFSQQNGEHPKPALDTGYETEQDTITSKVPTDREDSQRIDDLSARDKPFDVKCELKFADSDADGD
Description: co-immunoprecipitation (anti-HA or anti-V5) and western blot from lysates of co-transfected 293T cells. The procedure: Cells were harvested 72-hours later by scraping in 1 ml PBS. The pellets were lyzed on ice for 60 mins. in 500 ul lysis buffer: 50 mM Tris-HCl; pH7.5, 150 mM NaCl, 1 mM EDTA, 1% NP40, 0.25% Deoxycholate, 50 mMNaF, 20 mM Na3OV4 and protease inhibitors. 1 mM PMSF (0.3M stock solution in DMSO) was added to the lysis buffer before use. DNA was sheared with a needle. Lysates were then spun down for 10 mins. at 14,000 rpm. 200 ul cell lysates were incubated, overnight at 4° C. with gentle rocking, with lug of either rabbit polyclonal antibody to HA or V5 epitope tag (abcam; ab9110-100 and ab9116-100, respectively).
The next morning, a suspension protein A/G (50:50) agarose beads was washed twice in PBS then in lysis buffer. The beads (50% slurry) were incubated on ice in the lysis buffer for one hour. 30 ul of the proteinA/G suspension were added to the lysates and the mixture incubated for 4 hours at 4° C. with gentle rocking. Beads were then washed 3 times with 1 ml lysis buffer. Beads were resuspended in 30 μl sample buffer.
After protein transfer to membrane blots. Membranes were blocked over-night in PBST-5% Milk. The next day blots of the immunoprecipitation with V5 antibody were incubated with HA hybridoma supernatant (dilution 1:1000) for 1 hour whereas blots of the immunoprecipitation with HA antibody were incubated with V5-HRP (dilution 1:5000)

Numbering of substitutions follows the chain as printed. In names and notes the source's numbering stands.

Consider Src, for which the “Src-Y529 phosphorylation levels (immunoblot with a Src-Y529 phospho-specific antibody)” value in series [1] was “tm-PTPε overexpression cause Src-Tyr-529 dephosphorylation in NIH/3T3 and Rat-1 cells”; in series [2], “Both clones of tm-PTPε A24C mutant were unable to dephosphorylate Src-Y529”; in series [3], “Like wild-type tm-PTPε, PTPRεQ26C mutant was able to dephosphorylate Src-Y529”.

B1: tm-PTPε P20C mutant, V5-tagged (receptor, not shown: small tags and cut ends)
chain: LRGNETTADSNETTTTSGPCDPGASQPLLAWLLLPLLLLLLVLLLAAYFFRFRKQRKAVVSTSDKKMPNGILEEQEQQRVMLLSRSPSGPKKYFPIPVEHLEEEIRIRSADDCKQFREEFNSLPSGHIQGTFELANKEENREKNRYPNILPNDHSRVILSQLDGIPCSDYINASYIDGYKEKNKFIAAQGPKQETVNDFWRMVWEQKSATIVMLTNLKERKEEKCHQYWPDQGCWTYGNIRVCVEDCVVLVDYTIRKFCIQPQLPDGCKAPRLVSQLHFTSWPDFGVPFTPIGMLKFLKKVKTLNPVHAGPIVVHCSAGVGRTGTFIVIDAMMAMMHAEQKVDVFEFVSRIRNQRPQMVQTDMQYTFIYQALLEYYLYGDTELDVSSLEKHLQTMHGTTTHFDKIGLEEEFRKLTNVRIMKENMRTGNLPANMKKARVIQIIPYDFNRVILSMKRGQEYTDYINASFIDGYRQKDYFIATQGPLAHTVEDFWRMIWEWKSHTIVMLTEVQEREQDKCYQYWPTEGSVTHGEITIEIKNDTLSEAISIRDFLVTLNQPQARQEEQVRVVRQFHFHGWPEIGIPAEGKGMIDLIAAVQKQQQQTGNHPITVHCSAGAGRTGTFIALSNILERVKAEGLLDVFQAVKSLRLQRPHMVQTLEQYEFCYKVVQDFIDIFSDYANFK
notes: Transiently expressed in NIH/3T3 cells; also called PTPRε P20C
B1: the binding result in series [4] is reported as “binds”.

B2: tm-PTPε D21C mutant, V5-tagged (receptor, not shown: small tags and cut ends)
chain: B1 chain with C20P, D21C
notes: Transiently expressed in NIH/3T3 cells; also called PTPRε D21C
As to B2, the binding result in series [4] is listed as “binds”.

B3: tm-PTPε P22C mutant, V5-tagged (receptor, not shown: small tags and cut ends)
chain: B1 chain with C20P, P22C
notes: Transiently expressed in NIH/3T3 cells; also called PTPRε P22C
Consider B3, for which the binding result in series [4] was “binds”.

B4: tm-PTPε G23C mutant, V5-tagged (receptor, not shown: small tags and cut ends)
chain: B1 chain with C20P, G23C
notes: Transiently expressed in NIH/3T3 cells; also called PTPRε G23C
With B4, in series [4], the binding result is reported as “binds”.

B5: tm-PTPε Q26C mutant, V5-tagged (receptor, not shown: small tags and cut ends)
chain: B1 chain with C20P, Q26C
notes: Transiently expressed in NIH/3T3 cells (dimer blot) and stably in Rat-1 clones #1 and #30 (Src-Y529 blot); also called PTPRε Q26C; PTPRεQ26C
As for B5, in series [4], the binding result was “binds”.

B6: tm-PTPε A24C mutant, V5-tagged (receptor, not shown: small tags and cut ends)
chain: B1 chain with C20P, A24C
notes: Transiently expressed in NIH/3T3 cells (dimer blot) and stably in Rat-1 clones #8 and #26 (Src-Y529 blot); also called PTPRε A24C; PTPRε.A24C
Turning to B6, the binding result in series [4] is on record as “binds”.

B7: tm-PTPε S25C mutant, V5-tagged (receptor, not shown: small tags and cut ends)
chain: B1 chain with C20P, S25C
notes: Transiently expressed in NIH/3T3 cells; also called PTPRε S25C
In the case of B7, the binding result in series [4] was “binds”.

B8: HA-tm-PTPε (expressed from pDisplayHA tm-PTPε-FL#9) (receptor, not shown: small tags and cut ends)
chain: B1 chain with C20P
notes: Transiently expressed in 293T cells and tested from cell lysates; The tag is placed N-terminal on the strength of the name
In the case of B8, the binding result in series [5] was “no binding”.
